In the supplement of paper PMC10724198:
± gives the standard deviation of the averaged measurements.

Columns and labels:
Saccharomyces cerevisiae [1] = assay: protein stability index of tFT-peptide fusion (C-terminal peptide) (PSI (0-1 scale)); higher = more stable (slower turnover)
Description: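 MPS profiling in S. cerevisiae of the tFT-X12 degron library: putative degron peptides plus stable controls, 12 aa, fused to the C-terminus of a sfGFP-mCherry timer. Cells are FACS-sorted into 8 mCherry/sfGFP bins and deep-sequenced. PSI runs from 0 (unstable) to 1 (stable). Backgrounds are wild type, das1Δ and doa10Δ at 30 °C, and wild type, das1Δ, cdc34-1 and cdc53-1 at 37 °C; 2-3 technical replicates each.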

Saccharomyces cerevisiae [2] = assay: as above; conditions: genetic background: wild type; temperature: 30 C
[3] = genetic background: cdc34-1, temperature: 37 C
[4] = genetic background: cdc53-1, temperature: 37 C
[5] = genetic background: das1 deletion, temperature: 30 C
[6] = genetic background: das1 deletion, temperature: 37 C
[7] = genetic background: doa10 deletion, temperature: 30 C
[8] = genetic background: wild type, temperature: 30 C
[9] = genetic background: wild type, temperature: 37 C
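Note: PSI is a weighted mean of sequencing reads over stability bins, variants kept only with over 10 reads, mCherry proximal and sfGFP distal, peptide attached via GGGS linker.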

VTFCFLFVWFLV
protein stability index (Saccharomyces cerevisiae [1]; [3]): 0.269 ± 0.004 | protein stability index (Saccharomyces cerevisiae [1]; [4]): 0.378 ± 0.018 | protein stability index (Saccharomyces cerevisiae [1]; [5]): 0.27 ± 0.028 | protein stability index (Saccharomyces cerevisiae [1]; [6]): 0.413 ± 0.0092 | protein stability index (Saccharomyces cerevisiae [1]; [7]): 0.23 ± 0.015 | protein stability index (Saccharomyces cerevisiae [1]; [8]): 0.226 ± 0.012 | protein stability index (Saccharomyces cerevisiae [1]; [9]): 0.345 ± 0.013 | protein stability index (Saccharomyces cerevisiae [2]): 0.283 ± 0.048

VTGFGVAIVCVT
protein stability index (Saccharomyces cerevisiae [1]; [3]): 0.263 ± 0.021 | protein stability index (Saccharomyces cerevisiae [1]; [4]): 0.292 ± 0.0042 | protein stability index (Saccharomyces cerevisiae [1]; [5]): 0.254 ± 0.044 | protein stability index (Saccharomyces cerevisiae [1]; [6]): 0.3722 ± 0.0024 | protein stability index (Saccharomyces cerevisiae [1]; [7]): 0.191 ± 0.0072 | protein stability index (Saccharomyces cerevisiae [1]; [8]): 0.241 ± 0.033 | protein stability index (Saccharomyces cerevisiae [1]; [9]): 0.364 ± 0.015 | protein stability index (Saccharomyces cerevisiae [2]): 0.369 ± 0.084

VVFFFKFFLLRL
protein stability index (Saccharomyces cerevisiae [1]; [3]): 0.262 ± 0.0047 | protein stability index (Saccharomyces cerevisiae [1]; [4]): 0.224 ± 0.025 | protein stability index (Saccharomyces cerevisiae [1]; [5]): 0.318 ± 0.031 | protein stability index (Saccharomyces cerevisiae [1]; [6]): 0.407 ± 0.033 | protein stability index (Saccharomyces cerevisiae [1]; [7]): 0.362 ± 0.018 | protein stability index (Saccharomyces cerevisiae [1]; [8]): 0.246 ± 0.035 | protein stability index (Saccharomyces cerevisiae [1]; [9]): 0.325 ± 0.019 | protein stability index (Saccharomyces cerevisiae [2]): 0.363 ± 0.026

VVGLVSIVQVIM
protein stability index (Saccharomyces cerevisiae [1]; [3]): 0.43875 ± 0.0003 | protein stability index (Saccharomyces cerevisiae [1]; [4]): 0.488 ± 0.024 | protein stability index (Saccharomyces cerevisiae [1]; [5]): 0.308 ± 0.023 | protein stability index (Saccharomyces cerevisiae [1]; [6]): 0.51 ± 0.027 | protein stability index (Saccharomyces cerevisiae [1]; [7]): 0.279 ± 0.011 | protein stability index (Saccharomyces cerevisiae [1]; [8]): 0.31 ± 0.024 | protein stability index (Saccharomyces cerevisiae [1]; [9]): 0.493 ± 0.014 | protein stability index (Saccharomyces cerevisiae [2]): 0.397 ± 0.041

VVGRWGFVVECW
protein stability index (Saccharomyces cerevisiae [1]; [3]): 0.268 ± 0.014 | protein stability index (Saccharomyces cerevisiae [1]; [4]): 0.301 ± 0.024 | protein stability index (Saccharomyces cerevisiae [1]; [5]): 0.254 ± 0.037 | protein stability index (Saccharomyces cerevisiae [1]; [6]): 0.394 ± 0.0095 | protein stability index (Saccharomyces cerevisiae [1]; [7]): 0.227 ± 0.011 | protein stability index (Saccharomyces cerevisiae [1]; [8]): 0.249 ± 0.025 | protein stability index (Saccharomyces cerevisiae [1]; [9]): 0.366 ± 0.0046 | protein stability index (Saccharomyces cerevisiae [2]): 0.3595 ± 0.00014

VVGVVVCWGRGW
protein stability index (Saccharomyces cerevisiae [1]; [3]): 0.603 ± 0.015 | protein stability index (Saccharomyces cerevisiae [1]; [4]): 0.666 ± 0.029 | protein stability index (Saccharomyces cerevisiae [1]; [5]): 0.463 ± 0.024 | protein stability index (Saccharomyces cerevisiae [1]; [6]): 0.653 ± 0.0096 | protein stability index (Saccharomyces cerevisiae [1]; [7]): 0.448 ± 0.019 | protein stability index (Saccharomyces cerevisiae [1]; [8]): 0.469 ± 0.015 | protein stability index (Saccharomyces cerevisiae [1]; [9]): 0.6212 ± 0.0058 | protein stability index (Saccharomyces cerevisiae [2]): 0.496 ± 0.046

VVISRVLAIRLL
protein stability index (Saccharomyces cerevisiae [1]; [3]): 0.5452 ± 0.00094 | protein stability index (Saccharomyces cerevisiae [1]; [4]): 0.6095 ± 0.0003 | protein stability index (Saccharomyces cerevisiae [1]; [5]): 0.5 ± 0.027 | protein stability index (Saccharomyces cerevisiae [1]; [6]): 0.6173 ± 0.002 | protein stability index (Saccharomyces cerevisiae [1]; [7]): 0.1324 ± 0.0013 | protein stability index (Saccharomyces cerevisiae [1]; [8]): 0.137 ± 0.028 | protein stability index (Saccharomyces cerevisiae [1]; [9]): 0.228 ± 0.042 | protein stability index (Saccharomyces cerevisiae [2]): 0.237 ± 0.0063

VVIWWFSAVVSV
protein stability index (Saccharomyces cerevisiae [1]; [3]): 0.0446 ± 0.0021 | protein stability index (Saccharomyces cerevisiae [1]; [4]): 0.138 ± 0.026 | protein stability index (Saccharomyces cerevisiae [1]; [5]): 0.0727 ± 0.021 | protein stability index (Saccharomyces cerevisiae [1]; [6]): 0.2 ± 0.013 | protein stability index (Saccharomyces cerevisiae [1]; [7]): 0.0495 ± 0.014 | protein stability index (Saccharomyces cerevisiae [1]; [8]): 0.0622 ± 0.026 | protein stability index (Saccharomyces cerevisiae [1]; [9]): 0.165 ± 0.0031 | protein stability index (Saccharomyces cerevisiae [2]): 0.148 ± 0.036

VVPVGLYSVILV
protein stability index (Saccharomyces cerevisiae [1]; [3]): 0.427 ± 0.012 | protein stability index (Saccharomyces cerevisiae [1]; [4]): 0.447 ± 0.028 | protein stability index (Saccharomyces cerevisiae [1]; [5]): 0.322 ± 0.03 | protein stability index (Saccharomyces cerevisiae [1]; [6]): 0.4839 ± 0.0039 | protein stability index (Saccharomyces cerevisiae [1]; [7]): 0.289 ± 0.0065 | protein stability index (Saccharomyces cerevisiae [1]; [8]): 0.306 ± 0.021 | protein stability index (Saccharomyces cerevisiae [1]; [9]): 0.451 ± 0.02 | protein stability index (Saccharomyces cerevisiae [2]): 0.4269 ± 0.0008

VVSGLNYCLVLS
protein stability index (Saccharomyces cerevisiae [1]; [3]): 0.48 ± 0.033 | protein stability index (Saccharomyces cerevisiae [1]; [4]): 0.48 ± 0.029 | protein stability index (Saccharomyces cerevisiae [1]; [5]): 0.29 ± 0.042 | protein stability index (Saccharomyces cerevisiae [1]; [6]): 0.523 ± 0.006 | protein stability index (Saccharomyces cerevisiae [1]; [7]): 0.276 ± 0.013 | protein stability index (Saccharomyces cerevisiae [1]; [8]): 0.28 ± 0.039 | protein stability index (Saccharomyces cerevisiae [1]; [9]): 0.4829 ± 0.0021 | protein stability index (Saccharomyces cerevisiae [2]): 0.3917 ± 0.0038

VVVCSLVPLFVL
protein stability index (Saccharomyces cerevisiae [1]; [3]): 0.3086 ± 0.0026 | protein stability index (Saccharomyces cerevisiae [1]; [4]): 0.32 ± 0.035 | protein stability index (Saccharomyces cerevisiae [1]; [5]): 0.272 ± 0.03 | protein stability index (Saccharomyces cerevisiae [1]; [6]): 0.41 ± 0.017 | protein stability index (Saccharomyces cerevisiae [1]; [7]): 0.205 ± 0.012 | protein stability index (Saccharomyces cerevisiae [1]; [8]): 0.235 ± 0.029 | protein stability index (Saccharomyces cerevisiae [1]; [9]): 0.318 ± 0.0076 | protein stability index (Saccharomyces cerevisiae [2]): 0.34 ± 0.018

VVVVWVVVEIVR
protein stability index (Saccharomyces cerevisiae [1]; [3]): 0.147 ± 0.033 | protein stability index (Saccharomyces cerevisiae [1]; [4]): 0.275 ± 0.11 | protein stability index (Saccharomyces cerevisiae [1]; [5]): 0.164 ± 0.022 | protein stability index (Saccharomyces cerevisiae [1]; [6]): 0.279 ± 0.033 | protein stability index (Saccharomyces cerevisiae [1]; [7]): 0.121 ± 0.018 | protein stability index (Saccharomyces cerevisiae [1]; [8]): 0.133 ± 0.024 | protein stability index (Saccharomyces cerevisiae [1]; [9]): 0.178 ± 0.012 | protein stability index (Saccharomyces cerevisiae [2]): 0.169 ± 0.036

VVWVYSMLFSIW
protein stability index (Saccharomyces cerevisiae [1]; [3]): 0.19 ± 0.02 | protein stability index (Saccharomyces cerevisiae [1]; [4]): 0.3594 ± 0.00053 | protein stability index (Saccharomyces cerevisiae [1]; [5]): 0.231 ± 0.034 | protein stability index (Saccharomyces cerevisiae [1]; [6]): 0.403 ± 0.015 | protein stability index (Saccharomyces cerevisiae [1]; [7]): 0.202 ± 0.013 | protein stability index (Saccharomyces cerevisiae [1]; [8]): 0.221 ± 0.021 | protein stability index (Saccharomyces cerevisiae [1]; [9]): 0.415 ± 0.068 | protein stability index (Saccharomyces cerevisiae [2]): 0.276 ± 0.0055

VWFFLLSFANRL
protein stability index (Saccharomyces cerevisiae [1]; [3]): 0.4767 ± 0.0035 | protein stability index (Saccharomyces cerevisiae [1]; [4]): 0.5386 ± 0.004 | protein stability index (Saccharomyces cerevisiae [1]; [5]): 0.465 ± 0.043 | protein stability index (Saccharomyces cerevisiae [1]; [6]): 0.517 ± 0.0083 | protein stability index (Saccharomyces cerevisiae [1]; [7]): 0.466 ± 0.029 | protein stability index (Saccharomyces cerevisiae [1]; [8]): 0.45 ± 0.0099 | protein stability index (Saccharomyces cerevisiae [1]; [9]): 0.4845 ± 0.00053 | protein stability index (Saccharomyces cerevisiae [2]): 0.476 ± 0.015

VWFGGFVCSVLG
protein stability index (Saccharomyces cerevisiae [1]; [3]): 0.366 ± 0.019 | protein stability index (Saccharomyces cerevisiae [1]; [4]): 0.361 ± 0.012 | protein stability index (Saccharomyces cerevisiae [1]; [5]): 0.314 ± 0.028 | protein stability index (Saccharomyces cerevisiae [1]; [6]): 0.4478 ± 0.0026 | protein stability index (Saccharomyces cerevisiae [1]; [7]): 0.244 ± 0.0056 | protein stability index (Saccharomyces cerevisiae [1]; [8]): 0.297 ± 0.026 | protein stability index (Saccharomyces cerevisiae [1]; [9]): 0.415 ± 0.018 | protein stability index (Saccharomyces cerevisiae [2]): 0.393 ± 0.039

VWFGGLAVCCGG
protein stability index (Saccharomyces cerevisiae [1]; [3]): 0.398 ± 0.024 | protein stability index (Saccharomyces cerevisiae [1]; [4]): 0.405 ± 0.037 | protein stability index (Saccharomyces cerevisiae [1]; [5]): 0.303 ± 0.025 | protein stability index (Saccharomyces cerevisiae [1]; [6]): 0.4815 ± 0.0022 | protein stability index (Saccharomyces cerevisiae [1]; [7]): 0.2709 ± 0.0023 | protein stability index (Saccharomyces cerevisiae [1]; [8]): 0.303 ± 0.03 | protein stability index (Saccharomyces cerevisiae [1]; [9]): 0.43156 ± 0.00042 | protein stability index (Saccharomyces cerevisiae [2]): 0.396 ± 0.042

VWYSCWSFLVLF
protein stability index (Saccharomyces cerevisiae [1]; [3]): 0.444 ± 0.026 | protein stability index (Saccharomyces cerevisiae [1]; [4]): 0.548 ± 0.011 | protein stability index (Saccharomyces cerevisiae [1]; [5]): 0.416 ± 0.034 | protein stability index (Saccharomyces cerevisiae [1]; [6]): 0.55122 ± 0.00022 | protein stability index (Saccharomyces cerevisiae [1]; [7]): 0.2 ± 0.011 | protein stability index (Saccharomyces cerevisiae [1]; [8]): 0.207 ± 0.024 | protein stability index (Saccharomyces cerevisiae [1]; [9]): 0.362 ± 0.035 | protein stability index (Saccharomyces cerevisiae [2]): 0.291 ± 0.024

VYRRKLDRLLCI
protein stability index (Saccharomyces cerevisiae [1]; [3]): 0.561 ± 0.029 | protein stability index (Saccharomyces cerevisiae [1]; [4]): 0.615 ± 0.025 | protein stability index (Saccharomyces cerevisiae [1]; [5]): 0.512 ± 0.021 | protein stability index (Saccharomyces cerevisiae [1]; [6]): 0.652 ± 0.0088 | protein stability index (Saccharomyces cerevisiae [1]; [7]): 0.171 ± 0.012 | protein stability index (Saccharomyces cerevisiae [1]; [8]): 0.182 ± 0.035 | protein stability index (Saccharomyces cerevisiae [1]; [9]): 0.275 ± 0.005 | protein stability index (Saccharomyces cerevisiae [2]): 0.332 ± 0.1

WAAVGIQLRLLF
protein stability index (Saccharomyces cerevisiae [1]; [3]): 0.354 ± 0.011 | protein stability index (Saccharomyces cerevisiae [1]; [4]): 0.34 ± 0.015 | protein stability index (Saccharomyces cerevisiae [1]; [5]): 0.317 ± 0.034 | protein stability index (Saccharomyces cerevisiae [1]; [6]): 0.47357 ± 9.6e-05 | protein stability index (Saccharomyces cerevisiae [1]; [7]): 0.233 ± 0.026 | protein stability index (Saccharomyces cerevisiae [1]; [8]): 0.199 ± 0.018 | protein stability index (Saccharomyces cerevisiae [1]; [9]): 0.347 ± 0.022 | protein stability index (Saccharomyces cerevisiae [2]): 0.3323 ± 0.00057

WALVLLVPVWFD
protein stability index (Saccharomyces cerevisiae [1]; [3]): 0.442 ± 0.031 | protein stability index (Saccharomyces cerevisiae [1]; [4]): 0.553 ± 0.06 | protein stability index (Saccharomyces cerevisiae [1]; [5]): 0.383 ± 0.032 | protein stability index (Saccharomyces cerevisiae [1]; [6]): 0.567 ± 0.011 | protein stability index (Saccharomyces cerevisiae [1]; [7]): 0.396 ± 0.055 | protein stability index (Saccharomyces cerevisiae [1]; [8]): 0.402 ± 0.014 | protein stability index (Saccharomyces cerevisiae [1]; [9]): 0.533 ± 0.0073 | protein stability index (Saccharomyces cerevisiae [2]): 0.471 ± 0.027
